The nature of data set [1]: Degradation of recombinant VEGF by chronic wound fluid, western blotting. The format is in vitro ADME. The conditions noted are these: for susceptibility to proteolytic degradation by plasmin and fluids from chronic ulcers: summary statement. The protocol:
(§1) FIG. 7: VEGF111 is resistant to degradation by fluids collected from chronic wound. A: Conditioned media containing 20 ng of recombinant VEGF as produced above were treated with chronic wound fluid collected in one patient (20 μl at 37° C.) for indicated times and analysed by western blotting using anti-VEGF antibodies. B: HUVEC were treated with recombinant VEGF111, VEGF121 or VEGF165 produced in HEK293 cells, or with commercially available VEGF165 or the carrier alone, untreated or treated with fluids from chronic wounds (20 μl at 37° C. for 24 hours), and cell multiplication was measured by incorporation of ^3H-thymidine.
Conditioned media containing 20 ng of recombinant VEGF as produced above were treated with chronic wound fluid collected in one patient (20 μl at 37° C.) for indicated times and analysed by western blotting using anti-VEGF antibodies (FIG. 7A). […] FIG. 7B depicts the effect of treatment with chronic wound fluids on the mitogenic activity of the recombinants VEGF on HUVEC.

The test system of data set [2] is HUVEC. Description: Mitogenic activity on HUVEC of VEGF pre-treated with plasmin or chronic wound fluids (3H-thymidine incorporation). The format is cell-based, human. The conditions noted are these: summary statement, FIG. 6B, 7B. As to the method:
(§2) Recombinant VEGF165, VEGF121 or VEGF111 were produced in HEK293 cells. […] The figure depicts the percentage of degradation of each VEGF by comparison with untreated samples.
as §1
15000 HUVEC were seeded in gelatin-coated wells of 24 multiwells dishes in the presence of FCS. After three hours, the medium was replaced by fresh medium containing or not VEGF and renewed every two days. Cells were collected at various times and the DNA was measured by fluorimetry on a SpectraMax Gemini XS apparatus (Molecular Devices, England) after labeling with bis-benzimide. In some experiments, ^3H-thymidine (1 μM, 2.5 Ci/mol, NEN, Wellesley, Mass., USA) was added to cell cultures at day two and the trichloracetic acid-precipitable radioactivity was measured after 18 hours.

In data set [3] the test system is ERK1/2. In words: Activation of ERK1/2 signalling in HUVEC, western blotting. The settings on record: HUVEC starved overnight, treated 5 min. The format is cell-based, human. The protocol:
(§3) FIG. 4: VEGF111 is biologically active in vitro. A and B: VEGF111 activates VEGF-R2 (A) and ERK1/2 (B) in HUVEC. HUVEC were treated with HEK293 conditioned mediums containing VEGF111, VEGF121 or VEGF165, commercially available recombinant VEGF165 produced in bacteria (cVEGF) (20 ng/ml each) or fetal calf serum (FCS, 10%) for 5 minutes. Untreated cells (−) or cells treated with conditioned medium of control HEK293 cells (CM) served as control. Total and phosphorylated VEGF-R2 and ERK1/2 were measured by western blotting. C: VEGF111 promotes proliferation of HUVEC. HUVEC were treated with HEK293 conditioned mediums containing VEGF111(black circles), VEGF121 (open triangles) or VEGF165 (black triangles) (10 ng/ml) or conditioned medium from control HEK293 cells (open circles). The DNA was measured in triplicate wells harvested at increasing time of treatment. D: representative microphotograph of -embryoid bodies after immunofluorescent labeling of CD31 as marker of vasculature. Bar: […]. E: A number of microphotographs (of 6 embryoid bodies from 3 independent experiments for each treatment) were taken at random and analyzed by 5 investigators not aware of the treatments, and a score (from 0 to 3, where 0 indicates lack of vascular labeling, and 3 maximum labeling) was given to each sample. F: CD31 mRNA level was measured in embryoid bodies (10 samples in 3 independent experiment for each group) as described in Material and Methods. Statistical analysis was performed using the homoscedastic Student T test. *: p<0.05; **: p<0.01; ***: p<0.001
The proteins were migrated onto polyacrylamide gels and transferred onto PVDF transfer membranes (NEN, Boston, Mass.) by electroblotting. The membranes were blocked by non-fat dry milk (3% in PBS-tween buffer) and probed with first and horseradish peroxidase-conjugated secondary antibodies. Signals were detected by chemiluminescence using a ECL Western Blotting Analysis system (Amersham, Little Chalfont, England) and X-ray film exposure and quantified using a Fluor-S MultiImager (BioRad, Hercules, Calif.).
VEGF induces a number of effects in endothelial cells, including autophosphorylation of its receptors, activation of the ERK1/2 MAPkinases pathways, induction of calcium transients and increased proliferation. The in vitro effects of recombinants VEGFs on HUVEC were compared. HUVEC were starved overnight and treated for five min. with reVEGFs. […] Conditioned medium from HEK293 cells transfected with the empty vector had no effect. To further confirm the biological activity of VEGF111 the activation of ERK1/2 signalling pathways was investigated by western blotting using monoclonal phospho-specific antibodies. HUVEC were starved overnight and treated with the three reVEGF isoforms, as well as rbVEGF165, for 5 min. […]

The subject of data set [4] is HUVEC. In words: Intracellular calcium transients in HUVEC (Fluo3, confocal microscopy). The format is cell-based, human. The settings on record: conditioned medium with 10 ng VEGF, control medium about 15%. The protocol:
HUVEC were plated for 18 hours in MCDB-131 medium containing 20% FCS in borosilicate culture chambers (Lab-Tek®, Nunc, Rochester N.Y.) coated with gelatin, rinsed with serum-free medium, incubated with the fluorophore Fluo3-AM (10 μM, Molecular Probes, Eugene, Oreg.) in serum-free medium for two hours and washed. The observation of the fluorescence emitted by the Fluo3-labeled cells started 5 minutes after the last washing. Microscope fields randomly selected were examined by a confocal microscope (Meridian, Akemos, Mich.). The Fluo3-loaded cells were excited by an Argon LASER at 488 nm and the emitted fluorescence recorded at 530 nm in each cell of the field by real time imaging. Image processing and data computing were performed using the Meridian software. The intensity of the emitted fluorescence was recorded every second during 4 minutes. As the overall fluorescence intensity varied from cell to cell, the level of fluorescence of each cell at the beginning of the recording was normalised to one arbitrary unit. The baseline of resting cells spontaneously oscillated by ±10% around the level of the first image acquisition. After a 20 second period of baseline recording, 10-20 μL of conditioned medium from HEK293 cells expressing or not VEGF111, VEGF121 or VEGF165 (10 ng) were added gently on the cells under microscopic examination. A 20% rise above the baseline was considered as a significant calcium rise and the cell regarded as responsive. The results were expressed as the percentage of responding cells.
The induction of calcium transients by the various reVEGFs was investigated on HUVEC by real-time fluorescent microscopy as described. As the calcium concentration in resting cells spontaneously varied by about 10% around the baseline, cells were defined as responsive when the treatments induced a peak of calcium at least 20% above the baseline. HUVEC were treated with conditioned mediums from control HEK293 cells or cells expressing VEGF111, VEGF121 and VEGF165.

Data set [5] concerns HUVEC. In words: HUVEC proliferation (DNA measurement). The format is cell-based, human. The conditions noted are these: 10 ng/ml, medium renewed every two days. As to the method: as §3
15000 HUVEC were seeded in gelatin-coated wells of 24 multiwells dishes in the presence of FCS. […] Cells were collected at various times and the DNA was measured by fluorimetry on a SpectraMax Gemini XS apparatus (Molecular Devices, England) after labeling with bis-benzimide. In some experiments, ^3H-thymidine (1 μM, 2.5 Ci/mol, NEN, Wellesley, Mass., USA) was added to cell cultures at day two and the trichloracetic acid-precipitable radioactivity was measured after 18 hours. […]

In data set [6] the target is plasmin (Homo sapiens, UniProt P00747). Description: Degradation of recombinant VEGF by plasmin, western blotting. The format is in vitro ADME. The settings on record: 20 ng reVEGF, plasmin 0.04 to 0.32 units/ml, 4 hours. The protocol:
as §2
To facilitate the analysis of the electrophoretic patterns they were further treated with PNGase as described above and the products of the reactions were analysed by western blotting. […] FIG. 6A depicts the percentage of degradation of each VEGF by comparison with untreated samples.

The target in data set [7] is recombinant VEGF165 produced in HEK293 cells (UniProt P15692).
For data set [8], the target named is recombinant VEGF121 produced in HEK293 cells (UniProt P15692).
The subject of data set [9] is recombinant VEGF111 produced in HEK293 cells.

plasmin (Homo sapiens, UniProt P00747), sequence (P00747 581-810 limits assumed, species assumed): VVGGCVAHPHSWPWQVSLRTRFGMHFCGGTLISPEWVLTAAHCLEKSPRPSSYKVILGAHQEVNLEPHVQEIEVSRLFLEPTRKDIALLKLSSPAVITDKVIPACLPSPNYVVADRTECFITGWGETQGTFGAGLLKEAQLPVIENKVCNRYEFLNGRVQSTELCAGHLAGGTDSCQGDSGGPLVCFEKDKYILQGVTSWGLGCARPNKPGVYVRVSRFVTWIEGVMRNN
plasmin (Homo sapiens, UniProt P00747), sequence (P00747 97-580 partner limits assumed, species assumed): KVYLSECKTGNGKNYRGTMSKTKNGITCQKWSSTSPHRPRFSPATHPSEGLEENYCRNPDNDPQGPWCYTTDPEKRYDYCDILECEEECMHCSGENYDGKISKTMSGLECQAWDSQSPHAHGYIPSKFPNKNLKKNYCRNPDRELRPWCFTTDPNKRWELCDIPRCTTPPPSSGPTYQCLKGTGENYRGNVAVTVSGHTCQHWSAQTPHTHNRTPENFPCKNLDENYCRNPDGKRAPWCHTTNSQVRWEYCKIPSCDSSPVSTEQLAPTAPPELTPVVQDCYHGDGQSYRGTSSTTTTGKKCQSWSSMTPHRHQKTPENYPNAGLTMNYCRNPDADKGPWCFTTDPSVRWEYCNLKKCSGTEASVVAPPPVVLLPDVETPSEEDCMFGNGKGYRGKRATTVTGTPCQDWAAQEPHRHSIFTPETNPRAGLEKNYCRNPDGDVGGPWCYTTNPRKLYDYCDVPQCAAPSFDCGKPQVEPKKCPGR

“VEGF165: known VEGF isoform, recombinant, produced in HEK293 cells [reference compound]”: in [1], the “susceptibility to proteolytic degradation by plasmin and fluids from chronic ulcers” value was “susceptible”. In addition, in data set [2], the “effect of treatment by plasmin or fluids from non-healing wounds on the activity of the VEGF” value is on record as “reduces or suppresses”. In addition, in data set [3], the “phosphorylation of ERK1/2” value was “induced”. In addition, in [4], the “percentage of responding cells (calcium transients, peak at least 20% above baseline)” value turned out to be 70%. Moreover, the “increase of proliferation rate as compared to control conditioned medium” value (shortened to “increase of proliferation rate”) in data set [5] stood at 2.5 fold. For the same molecule, in data set [6], the “degradation by plasmin (western blotting)” value is “progressively degraded”.

For plasmin, the “dose of plasmin that cleaves VEGF by 50%” value in data set [7] was “comprised between 0.05 and 0.07 U/ml for VEGF165 and VEGF121”; in [8] it was “comprised between 0.05 and 0.07 U/ml for VEGF165 and VEGF121”; in data set [9], “above 0.32 U/ml for VEGF111”.

B1: VEGF121: known VEGF isoform, recombinant, produced in HEK293 cells (protein)
chain: APMAEGGGQNHHEVVKFMDVYQRSYCHPIETLVDIFQEYPDEIEYIFKPSCVPLMRCGGCCNDEGLECVPTEESNITMQIMRIKPHQGQHIGEMSFLQHNKCECRPKKDRARQEKCDKPRR
Consider B1, for which the “susceptibility to proteolytic degradation by plasmin and fluids from chronic ulcers” value in data set [1] is “susceptible”. For the same molecule, in data set [2], the “effect of treatment by plasmin or fluids from non-healing wounds on the activity of the VEGF” value is “reduces or suppresses”. In addition, in data set [3], the “phosphorylation of ERK1/2” value is listed as “induced”. In [4], the “percentage of responding cells (calcium transients, peak at least 20% above baseline)” value is listed as 70%. The “increase of proliferation rate” value in [5] is 2 fold. Also, the “degradation by plasmin (western blotting)” value in [6] is listed as “progressively degraded”.

B2: VEGF111: new VEGF isoform lacking exons 5 to 7, SEQ ID NO:2; recombinant, produced in HEK293 cells (protein, listed as Homo sapiens)
chain: MNFLLSWVHWSLALLLYLHHAKWSQAAPMAEGGGQNHHEVVKFMDVYQRSYCHPIETLVDIFQEYPDEIEYIFKPSCVPLMRCGGCCNDEGLECVPTEESNITMQIMRIKPHQGQHIGEMSFLQHNKCECRPCGPCSERRKHLFVQDPQTCKCSCKNTDSRCKARQLELNERTCRCDKPRR
As for B2, the “degradation by chronic wound fluid” value in data set [1] (20 ng VEGF, 20 μl wound fluid of one patient, 37° C., after 24 hrs) was “no detectable degradation”. In addition, the “effect of treatment by plasmin or fluids from non-healing wounds on the activity of the VEGF” value in [2] is “does not affect”. In addition, in data set [3], the “phosphorylation of ERK1/2” value was “induced”. In addition, the “percentage of responding cells (calcium transients, peak at least 20% above baseline)” value in data set [4] is on record as 70%. For the same molecule, the “increase of proliferation rate” value in data set [5] is given as 2 fold. In addition, the “degradation by plasmin (western blotting)” value in data set [6] is reported as “unaffected”. The “dose of plasmin that cleaves VEGF by 50%” value in data set [6] (37° C.) is on record as “above 0.32 U/ml”.

B3: rbVEGF165: commercially available recombinant VEGF165 produced in bacteria (protein)
chain: APMAEGGGQNHHEVVKFMDVYQRSYCHPIETLVDIFQEYPDEIEYIFKPSCVPLMRCGGCCNDEGLECVPTEESNITMQIMRIKPHQGQHIGEMSFLQHNKCECRPKKDRARQENPCGPCSERRKHLFVQDPQTCKCSCKNTDSRCKARQLELNERTCRCDKPRR
For B3, in data set [3], the “phosphorylation of ERK1/2” value is “induced”.
